How the values were obtained:
[1] = biological target: human adenosine A2a receptor protein (human) (UniProt P29274); test: cell-based or functional assay
[2] = biological target: human dopamine D1 receptor protein (human) (UniProt P21728); test: cell-based or functional assay
human dopamine D1 receptor protein (human), sequence (P21728 whole entry): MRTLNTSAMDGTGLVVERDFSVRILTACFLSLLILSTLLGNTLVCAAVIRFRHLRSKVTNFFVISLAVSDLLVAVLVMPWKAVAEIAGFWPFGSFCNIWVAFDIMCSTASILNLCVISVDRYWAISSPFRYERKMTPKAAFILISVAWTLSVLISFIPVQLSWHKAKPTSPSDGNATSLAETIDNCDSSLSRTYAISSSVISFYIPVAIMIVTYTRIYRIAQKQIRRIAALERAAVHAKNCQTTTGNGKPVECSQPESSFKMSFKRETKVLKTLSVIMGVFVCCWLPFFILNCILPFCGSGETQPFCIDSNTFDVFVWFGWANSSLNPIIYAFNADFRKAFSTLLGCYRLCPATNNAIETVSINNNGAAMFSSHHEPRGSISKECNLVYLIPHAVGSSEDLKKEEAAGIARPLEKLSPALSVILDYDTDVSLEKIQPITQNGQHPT

human adenosine A2a receptor protein (human), sequence (P29274 whole entry): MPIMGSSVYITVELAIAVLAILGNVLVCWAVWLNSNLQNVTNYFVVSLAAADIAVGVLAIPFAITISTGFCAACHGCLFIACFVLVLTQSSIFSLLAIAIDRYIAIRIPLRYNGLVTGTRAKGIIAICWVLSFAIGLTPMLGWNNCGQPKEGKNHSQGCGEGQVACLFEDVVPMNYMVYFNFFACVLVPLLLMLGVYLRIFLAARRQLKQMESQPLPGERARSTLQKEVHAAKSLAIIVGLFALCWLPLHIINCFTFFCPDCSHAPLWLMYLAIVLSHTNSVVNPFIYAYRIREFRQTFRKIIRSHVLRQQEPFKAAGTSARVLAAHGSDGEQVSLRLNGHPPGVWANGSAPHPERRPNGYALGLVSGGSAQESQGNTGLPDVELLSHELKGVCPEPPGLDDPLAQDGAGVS

cAMP level (HitHunter ECF cyclic AMP chemiluminescent assay; CHO cells co-expressing Gm1 and adenosine A2a receptor, 10 µM adenosine; cells expressing only the A2a receptor = 100%, no contact = 0%) [1]: 134% | cAMP level (HitHunter ECF cyclic AMP chemiluminescent assay; CHO cells co-expressing Gm1 and dopamine D1 receptor, 10 µM dopamine; cells expressing only the D1 receptor = 100%, no contact = 0%) [2]: 127%
Substance: human Gm1 protein

Source: patent US20050260595A1
